Target: the molecule itself
Assay: X-ray crystal structure of the complex

B1: P94S mutant F2F3 fragment of human CPSF30 (variant used in the X-ray crystal structure determination) (other)
chain: SGEKTVVCKHWLRGLCKKGDQCEFLHEYDMTKMSECYFYSKFGECSNKECPFLHIDPESKI
notes: also called F2F3 with Ser in place of Pro at position 94; F2F3-A; not shown: N-terminal hexaHis tag
binding result: binds

Reference: patent US20140308307A1 (University of Texas, published 2014)
